Experimental findings from paper PMC5509211 are described below.

For the test, the target named is actin filaments (skeletal muscle) (Gallus gallus), P68139. The note with it: modification not given.

Usually Kd stands for the concentration at which binding is half-saturated. Molecule MGVADLIKKFESISKEE [mEGFP-Lifeact] registered a dissociation constant (Kd) of 9.3 µM.
